This note sets out measurements from PMC10215022.

Assay [1] deals with SARS-CoV-2 Omicron BA.5 spike protein, plate-bound (MSD V-PLEX) (SARS-CoV-2 Omicron BA.5).
The target in assay [2] is SARS-CoV-2 Wuhan (WT) spike protein RBD, His-tagged (SARS-CoV-2 Wuhan (WT)) (UniProt P0DTC2). The assay is described as follows: SPR.

As to “REGEN-COV mAb cocktail (casirivimab and imdevimab at 1:1 molar ratio)”, the IC50 in assay [1] was 5.2 nM.
In assay [2], “decavalent IgM ACE2 decoy (from UniProt Q9BYF1;P01591) (Fc fusion)” gave an equilibrium dissociation constant (Kd) of 0.097 nM, a koff of 3.5e-05 s⁻¹ and a kon of 380000 M⁻¹ s⁻¹.
